According to the DeepSol protein solubility set:

test: soluble on expression in E. coli; label from the status in PepcDB or PDB records

Sequence	soluble on expression in E. coli
MGSDKIHHHHHHMRLPLNQRVAILLHEGTTGTIGKTGLALLRYSEAPIVAVIDRNCAGQSLREITGIYRYVPIVKSVEAALEYKPQVLVIGIAPKGGGIPDDYWIELKTALQAGMSLVNGLHTPLANIPDLNALLQPGQLIWDVRKEPANLDVASGAARTLPCRRVLTVGTDMAIGKMSTSLELHWAAKLRGWRSKFLATGQTGVMLEGDGVALDAVRVDFAAGAVEQMVMRYGKNYDILHIEGQGSLLHPGSTATLPLIRGSQPTQLVLVHRAGQTHNGNNPHVPIPPLPEVIRLYETVASGGGAFGTVPVVGIALNTAHLDEYAAKEAIAHTIAETGLPCTDVVRFGADVLLDAVMQN	not soluble
MEKAPLLLETVEQAVRILQESPFVAIWNYKVLSVQAGAVALALPAQPQFYRPGGIIQGGCLMTLADTAFWLAAMTELGIDAPIVTLEMKTHFLRAAQADVYCRAEVMKSGRRVTYGTATITDAAGQTLSHHTLTYLAA	not soluble
MSLDASDDSLIGRITEVRAGRFAARLLSDEEGFRNEVSLGDEVQHPGQVGTYVSIRNGTFRILALVREVSGGAAGSAAGSAMQLVPLGEFNDKGAFSRGVRRYPVPGAEVHAASPQEINAVFARTRNLRFNPGYLPNHPATGVYLDPSALCSRHFAILGQSGAGKSWTVASLLQRMLASAPRAHIILLDLHGEYCWRGADGVLHSTFPPMATRAMDARELEIPYWLMSFAELVDLLIERDDPAASIQTAFLRETVFELKRRSARELGLEGVSIDAPVYFSLQEVYERFKEANEHRTDFGKTKGPLFGQFDDFLLKLGSRLHDVRYDFLLNPARRTRSESLPDLLRDFVGLGEPRCQISVIDLSPVPFDVRPTVSAQIGRLAFEFNYWNLDRREFPILLVCEEAHTYIPRERATQYEGTRKSMERIAKEGRKYGVGLAVVSQRPHELSETVLSQCGSYICLRISNPDDQAYVRKLVPEGEADLVDVLTALGRGEALILGEATPLPVRCQIFRPDEGHHHHHH	not soluble
MLILVSPAKTLDFEQPPLTQIHTRPDFLAQSQELIQVCQQLTPSDIATLMKVSDSIAGLNAARFGEWKPDYSIDNAKQAIFAFRGDVYTGFDADTLTAAQLERTQSQLRILSGLYGLLRPLDLILPYRLEMGTALTNQKGKNLYEFWGNTLTDAVNSAVAAQGDGIIINLASNEYFKAIKPKFLNGQLITPVFKDFKNGQYKVISFFAKRARGMMARYIIDQQVSSIDGLKAFEVDGYYYSEELSKPNEPTFLREAQ	soluble
MGSDKIHHHHHHMKVLHVNAGLENGGGLSHIVNLLTEAKRENKDFDLLTLADGPVAAAAREHGINTYVLGAKSRYNLASLKKLIKFINDGHYDIVHTHGARANLFLSLIHKRISAVWCVTVHSNPYLDFEGRGFLGKVFTKFNLRALKKADCIFAVTKRFANLLVNQTQLDKNKVHVIYNGIFFHNDSEIPAKYEHTYFNVINVARTEKVKGQELLLKAVKKLNDQHIRLHIAGDGSQLEPLKALTRQLNMAPQVTFHGFMTHHQLSGLYKRIDLAVLTSYSESFPLVLLEATDNLIPILSTDVGDIHKMIPGPKYGFIAKTGDIDSIAKQLELAVNKTTKQLREMAYTEKRYAEEHFSVKNQLADIEKVYSTLI	not soluble
MCQSNQIVSHFLSHRNVTNELAEKISKDHYSYKPAETSMSAEELVKHILTSFHLFANVIKEGNASPFQNKQEETETDLNVLAKTYTEKTVAILEQLTEEQLDREIDLTSAFGRKVTGRALLQLAMEHEIHHKGNLFVYVREMGHTELPFYQQRMLEHHHHHH	soluble
MQTISDNAANAIQEIFGRSKALIGMIHCPAFPGAPRYRNASMDAIYDACMRDAERLIEGGMHGLIVENHGDVPFSKPDDIGPETSAFMSVVTDRIVRTAGVPVGINVLANAPIPAFAIAKAGGAKFIRVNQWANAYVANEGFMEGRAAEAMRYRSLLRAEHIKVFADSHVKHGAHAITADRSIDELTRDLAFFDADGVIATGQRTGNSASLEEIEEIGAATHLPLLVGSGVNEGNIVEILKRTSGVIVASSLKEGGVWWNPVELARVRSFVAAARPGLEALEHHHHHH	soluble
MKPTDTSEKALEQLIVRHLAGISEHASVPPNAVQSPGAIYALGGYVLGRATDFNRDVALDTVQLLAFLQATQPDAVETLELAHEGIKRTQFLHRLQGEITKRGVVDVLRKGVSHGPVRVDLYRLLPTPGNTNAAEAFGRNIFSITRQVRYSHDSGNELDLVIFVNGLPVLTFELKNSLTKQTVADAIVQYQSTRSPQELLFQPGRCIAHFAVDDAEVYFCTELKGKASWFLPFNQGWNNGAGNPPNPNGLKTDYLWKQVLAKESLANIIESFAQVVEEQETDATTGRKKKKRKPVFPRFHQLRTVRALLRRTRSDGVGKRYLIQHSAGSGKSNTIAWLAHQLVELRSVADPLMPQFDSIIVITDRRALDTQIARTIKGYDHVASIFGHSDNAQELRDYLRRGRKIIVTTVQKFPFILEEIGDLSGRTFALLIDEAHSSQGGKTTARMHEALSGKTDEEAFEEDATQDAVNTEIEKRIQSRRMLSNASYFAFTATPKNRTLELFGEKTVVDDKVEFRSPEELTYTTKQAIQEGFILDVIAHYTTLDSFYQVAKTVENDPDFDKARALKKIRHYVESHDKAIRRKAEIMVDHFVAQVMGAKKIGGKARAMIVCNGIARAIDYWREVSDYLEQIKSPYKAIVAYSGEFEIGGEKKTEADLNDFPSKEIPDRLRQDPYRFLIVANKFVTGFDEPLLHTMYVDKKLAGVQAVQTLSRLNRAHPQKHDTFVLDFADNAEAVKKAFQDYYRATIQTGETDANKLHDLKADLDDKQIYSWPQVEDLVALYLSGADRDKLDPILDHCVEQYQANLDEDNQVEFKGKAKAFVRSYGFLAAILSYGHPAWEKLSIFLNFLIPKLPAPKEEDLSKGVLESIDIDSYRVEARAALKMAMDDTDATVEVAPVGGGGGKGEPDIDKLSNILKTFNDLFGNIDWKDADKIGKVIAEEIPVRVAQDKAYQNAQVNSDRQNAKLEHDKALNRVVLELLSDHTELFKQFSDNPNFKRWLTDMVFDVTYQQNPAHGVEDVRMRALDIVRDRFDAAVVWSQAVDMLLDRLAAGGRNSLGIADLALIEETSGLSVSHVLFPVLNLLSAHDVGILNREFVRVGSTDTPQTMSFDEVRLLAQKDPEGDDWAECLSIRWALQDAQR	not soluble
NKDLLWTTSLNIGHNKNKLTKLDGEQQEIISGVSIHRVGQPYYSIYAYEYAGVDPQTGKELYYINGEDGSRETTTNSAAANKTIIGSIEPKVQGGLTNYVSWKFIDFNLTLTYSLGGHAYDYATWLQSNGGTYHYLGNVPAYYKMEDTWQKTGDNAKLPQFAYGNANKASSRWLMSTDHLRVKNMTLGFTLPQSWSSKAGISKLRAYVSGNNLLTWKKKSLYVDPEVPVDGLCTFETPALRTVTFGLEIGF	not soluble
MSCINLPTVLPGSPSKTRGQIQVILGPMFSGKSTELMRRVRRFQIAQYKCLVIKYAKDTRYSSSFCTHDRNTMEALPACLLRDVAQEALGVAVIGIDEGQFFPDIVEFCEAMANAGKTVIVAALDGTFQRKPFGAILNLVPLAESVVKLTAVCMECFREAAYTKRLGTEKEVEVIGGADKYHSVCRLCYFKKASGQPAGPDNKENCPVPGKPGEAVAARKLFAPQQILQCSPAN	not soluble
MAHHHHHHMGVPTMERSHGRRSPDEVRYPHIVLNVLGQSYSSACIEVGSTRVVCAVHHPQQLIDEYRGSRGRVACTVRRSSRAQKHELAFRADVTPEKDLALALEGVVEQAVVLEKIPQLLVEVAVEILAEDGGLWDAIATGVCAALASGGFEMYDTFSACGAALLPDGSIVTDPSATEWNTAKATAVTCAMLNSGNMCFTAQRGSCEPTTALDLVMAALKGTLARKNVISSQLCEQFAF	not soluble
MSLTEDVTSQTSESLARHSVLAEDLSQDGLTSLGAPGARVLLVWDAPNLDMGLGSILGRRPTALERPRFDALGRWLLARTAEIVAGRPGISTEPEATVFTNIAPGSAEVVRPWVDALRNVGFAVFAKPKVDEDSDVDRDMLAHIDERYREGLAALVVASADGQAFRQPLEAVARSGTPVQVLGFREHASWALASDTLEFVDLEDIAGVFREPLPRIGLDSLPEQGAWLQPFRPLSSLLTSRV	soluble
MKEKIPFYNEKEFHDMVKKTKKGTFSGWYIINKNNNSVEFSGSFNRQFKLNKPVIPVNTEYVTRKEFNEYKDSNDQRLTKIETELKSQGQRIQVVEDKVDRLTEVVMVQSQQIKTQGEAMNARMDRFESLVLKSLESIGNTLTDFGKRLDVIETRLDKIDPPKLEHHHHHH	not soluble
MINFEATELRLGLPGGNHGGEMAGKNNGKRGFSETVDLKLNLSSTAMDSVSKVDLENMKEKVVKPPAKAQVVGWPPVRSFRKNVMSGQKPTTGDATEGNDKTSGSSGATSSASACATVAYVKVSMDGAPYLRKIDLKLYKTYQDLSNALSKMFSSFTIGNYGPQGMKDFMNESKLIDLLNGSDYVPTYEDKDGDWMLVGDVPWEMFVDSCKRIRIMKGSEAIGLAPRALEKCKNRS	soluble
MGKIQARIPDEVQEVASAVIKSTGLTVSDAVRMFMTRIARDRALPLDLFQPNLETLQAIEDAEMGRVERTSLDGLRAMIRDDKAEVCKSAK	not soluble
MAHHHHHHMWWTAARRRLYYPNQIFLSKDNRRINNSWLPRRLLLVRHGESEANVNREVYSNTPDWKIPLTALGREQAYDCGKRLRNIIQGEKLYIYYSPYARTRQTVSEIRRSFDESQIQGEREDERLREQEMGNYQPLQDMDATWAARNAFGRLYYRFPFGESGADVGDRVSGFFDSLLRESIGLTVPNMNECVVQGAREGLGALDLGPWSTGVDNVPGSSCACSVSTSQGGPVASSTGSESAPPSWTPSFHQATTSSAGLRRTIRRTSPHRPLPLSDFGEAETRGVPPLNDHCASAGEEQNVLIIAHGLLIRLFIGRWFRVPMEVFETMCNPPNCAIIVLERDDRLGRLVMTDMSKSLFGSDPLLQMMRFDGREDTHWYREKFLGIVDPTKAAEEAVVEDDDENHYSMSNAHNSGVGAPAPPPRQRKPSTSTATRASPSTSASASGTSASSAESADVSASTAEHAALAARDRATQPKCPPPCMDCTPNRDYMTFSRRR	not soluble
MSLILYDYFRSTACYRVRIALNLKKIAYEKIEVHLVNNGGEQHSLQYHQINPQELVPSLDINGQILSQSMAIIDYLEEIHPEMPLLPKDPFMKATLKSMALIVACDMHPLNNLRVLNRLKEQFNANEEQVLEWYHHWLKTGFDAFEEKLGALERDKPVCFGSEVGLADVCLIPQVYNAHRFHFDMASYPIINEINEYCLTLPAFHDAAPEAISSEGHHHHHH	soluble
MGSDKIHHHHHHMSYSLQKSMVAKVVGLSLVMLLAACSSDQRYKRQVSGDESYLKAPAQHVLNTPAGMILPVQNGDFDIPPVTLNGAVGKELDIRPPVQPLALLNGSRTQTSGDTATLLLENSAQNSQIWSQVIRVLQDNAFTIANRQDASQTLTTDWISWPREDENVPYQGRYQISVQQQGYQVALIVKLLGLQLNGQPVTTSDQTQRYAGLMLNVLSNGLDSQATARENALANRTIGSLDVQSGADDTGLPLLIVRGPYTVVWDRLPVALDKIGMKVNDRSRPQGSVSVTYRAPSGGTWDDLGAKNPELPNGDYKLQVGDLDNRSSLQFIDSKGHTLTQSQNDALVAVFQAAFSK	not soluble
MGSDKIHHHHHHMNAPLNHPLPLLDLDVLRTFVAIAETGSFTTAANAVFRTPSAVSMQIKKLEDILGRSVFARDARSVSLTTDGEMLLGYARRLLSINREVVSKFIIPEIVGVVRLGSPDDYGERVLPHVLKRFAQSHPSIAVDVTIDQSSNLRRRMDDRALDITLLTNSYKTSALGAEVLLTEPIVWAGAKGGCAHLREPLPVSLWEEGCAWRAGALEALGREGRNYRVAYMSAHTAGQRAAIMADLAVAPLPRSFLGNDMVELCPKDGMPDIGTYNLAMVVAPDASAPVKAVADHIRATFEVFRETGKF	not soluble
